According to the supplement of paper PMC9112550, “Optimization of the antimicrobial peptide Bac7 by deep mutational scanning” (BMC Biology, 2022):

What follows are sequences tested on Escherichia coli TOP10 (assay: shrunken log2 fold change of peptide-encoding DNA abundance (4.5 h post-induction vs induction); higher = less antimicrobial activity (less host growth inhibition)). Conditions: time post-induction: 4.5 h; library: site-saturation at positions 5, 18, 19, 20.
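Further: peptides expressed intracellularly from a pBAD plasmid library in pooled LB shake-flask culture, induced with 0.3% L-arabinose, DNA abundance read by NGS, three biological replicates, DESeq2 with apeglm shrinkage.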

| Sequence | shrunken log2 fold change |
| --- | --- |
| RRIRLRPPRLPRPRPRPCVEPRP | -0.124 |
| RRIRARPPRLPRPRPRPSCIPRP | -0.131 |
| RRIRQRPPRLPRPRPRPFEMPRP | -0.0512 |
| RRIRERPPRLPRPRPRPKVCPRP | -0.0496 |
| RRIRDRPPRLPRPRPRPWYTPRP | -0.0848 |
| RRIRYRPPRLPRPRPRPEDKPRP | -0.0222 |
| RRIRRRPPRLPRPRPRPLYPPRP | -0.0452 |
| RRIRWRPPRLPRPRPRPSMFPRP | -0.0441 |
| RRIRPRPPRLPRPRPRPNDYPRP | -0.307 |
| RRIRERPPRLPRPRPRPIFMPRP | -0.1 |
| RRIRDRPPRLPRPRPRPMADPRP | 0.523 |
| RRIRGRPPRLPRPRPRPIENPRP | 0.745 |
| RRIRERPPRLPRPRPRPGETPRP | 0.0954 |
| RRIRTRPPRLPRPRPRPQYGPRP | -0.082 |
| RRIRGRPPRLPRPRPRPHDVPRP | 0.118 |
| RRIRDRPPRLPRPRPRPNMEPRP | 0.0616 |
| RRIRTRPPRLPRPRPRPTGFPRP | -0.0124 |
| RRIRRRPPRLPRPRPRPADGPRP | 0.344 |
| RRIRHRPPRLPRPRPRPPGPPRP | 0.196 |
| RRIRTRPPRLPRPRPRPFNYPRP | -0.269 |
| RRIRFRPPRLPRPRPRPEPEPRP | 0.864 |
| RRIRGRPPRLPRPRPRPMGKPRP | 0.375 |
| RRIRPRPPRLPRPRPRPSVVPRP | -0.162 |
| RRIRYRPPRLPRPRPRPGMLPRP | -0.139 |
| RRIRVRPPRLPRPRPRPPIPPRP | 0.242 |

| Sequence | shrunken log2 fold change |
| --- | --- |
| RRIRWRPPRLPRPRPRPEAPPRP | 1.01 |
| RRIRCRPPRLPRPRPRPYMCPRP | -0.233 |
| RRIRVRPPRLPRPRPRPMWPPRP | 0.0245 |
| RRIRFRPPRLPRPRPRPSMCPRP | -0.714 |
| RRIRHRPPRLPRPRPRPYVTPRP | -0.182 |
| RRIRSRPPRLPRPRPRPLEVPRP | -0.103 |
| RRIRIRPPRLPRPRPRPGFVPRP | 0.108 |
| RRIRIRPPRLPRPRPRPVKVPRP | -0.00567 |
| RRIRPRPPRLPRPRPRPVKCPRP | -0.0701 |
| RRIRGRPPRLPRPRPRPLSRPRP | 1.17 |
| RRIRLRPPRLPRPRPRPHEWPRP | -0.0141 |
| RRIRQRPPRLPRPRPRPEPIPRP | 0.047 |
| RRIRWRPPRLPRPRPRPQHAPRP | -0.0577 |
| RRIRGRPPRLPRPRPRPNFLPRP | -0.0918 |
| RRIRQRPPRLPRPRPRPFTCPRP | -0.158 |
| RRIRHRPPRLPRPRPRPISSPRP | -0.202 |
| RRIRIRPPRLPRPRPRPSHAPRP | -0.283 |
| RRIRQRPPRLPRPRPRPEKEPRP | -0.0081 |
| RRIRYRPPRLPRPRPRPHGWPRP | -0.0273 |
| RRIRKRPPRLPRPRPRPRAEPRP | 0.632 |
| RRIRYRPPRLPRPRPRPDEVPRP | 0.000691 |
| RRIRQRPPRLPRPRPRPVSCPRP | 0.0853 |
| RRIRERPPRLPRPRPRPTCAPRP | -0.162 |
| RRIRTRPPRLPRPRPRPSMRPRP | -0.107 |
| RRIRLRPPRLPRPRPRPNWWPRP | 0.117 |

| Sequence | shrunken log2 fold change |
| --- | --- |
| RRIRDRPPRLPRPRPRPDKRPRP | 0.00902 |
| RRIRNRPPRLPRPRPRPNGQPRP | -0.0686 |
| RRIRDRPPRLPRPRPRPHPPPRP | 0.402 |
| RRIRLRPPRLPRPRPRPYDMPRP | -0.921 |
| RRIRFRPPRLPRPRPRPICSPRP | -0.0437 |
| RRIRKRPPRLPRPRPRPGYIPRP | 0.0313 |
| RRIRTRPPRLPRPRPRPNRYPRP | -0.19 |
| RRIRYRPPRLPRPRPRPNLTPRP | -0.372 |
| RRIRSRPPRLPRPRPRPGTVPRP | -0.0347 |
| RRIRCRPPRLPRPRPRPCLQPRP | -0.129 |
| RRIRHRPPRLPRPRPRPAGNPRP | 0.023 |
| RRIRLRPPRLPRPRPRPLITPRP | -0.238 |
| RRIRGRPPRLPRPRPRPALEPRP | 1.11 |
| RRIRKRPPRLPRPRPRPWWNPRP | 0.0316 |
| RRIRWRPPRLPRPRPRPLGNPRP | -0.14 |
| RRIRTRPPRLPRPRPRPTDIPRP | 0.0221 |
| RRIRPRPPRLPRPRPRPRHYPRP | 0.101 |
| RRIRPRPPRLPRPRPRPFCKPRP | -0.511 |
| RRIRMRPPRLPRPRPRPPSSPRP | -0.0366 |
| RRIRFRPPRLPRPRPRPSPHPRP | 0.0339 |
| RRIRERPPRLPRPRPRPNGTPRP | -0.0811 |
| RRIRPRPPRLPRPRPRPDISPRP | 0.0683 |
| RRIRQRPPRLPRPRPRPRNFPRP | -0.0725 |
| RRIRRRPPRLPRPRPRPRKVPRP | 0.602 |
| RRIRNRPPRLPRPRPRPAWRPRP | 0.526 |

| Sequence | shrunken log2 fold change |
| --- | --- |
| RRIRDRPPRLPRPRPRPKYNPRP | -0.813 |
| RRIRTRPPRLPRPRPRPMFIPRP | -0.305 |
| RRIRSRPPRLPRPRPRPQDQPRP | -0.0695 |
| RRIRFRPPRLPRPRPRPRHRPRP | 0.195 |
| RRIRNRPPRLPRPRPRPSYKPRP | -0.819 |
| RRIRSRPPRLPRPRPRPTAAPRP | 1.03 |
| RRIRARPPRLPRPRPRPEWAPRP | 1.06 |
| RRIRARPPRLPRPRPRPLADPRP | 0.42 |
| RRIRCRPPRLPRPRPRPRSVPRP | 0.318 |
| RRIRVRPPRLPRPRPRPGISPRP | -0.49 |
| RRIRTRPPRLPRPRPRPWHYPRP | -0.268 |
| RRIRRRPPRLPRPRPRPLWEPRP | 0.378 |
| RRIRNRPPRLPRPRPRPTNGPRP | -0.0138 |
| RRIRCRPPRLPRPRPRPLRNPRP | 0.272 |
| RRIRHRPPRLPRPRPRPHCSPRP | -0.124 |
| RRIRVRPPRLPRPRPRPAFHPRP | -0.208 |
| RRIRDRPPRLPRPRPRPKLRPRP | -0.0184 |
| RRIRPRPPRLPRPRPRPAVLPRP | 0.163 |
| RRIRVRPPRLPRPRPRPMWQPRP | -0.0393 |
| RRIRKRPPRLPRPRPRPTFAPRP | 0.673 |
| RRIRHRPPRLPRPRPRPQAFPRP | -0.0247 |
| RRIRWRPPRLPRPRPRPVRGPRP | 0.538 |
| RRIRLRPPRLPRPRPRPKYHPRP | -0.472 |
| RRIRTRPPRLPRPRPRPSIIPRP | -0.647 |
| RRIRLRPPRLPRPRPRPINMPRP | -0.482 |

| Sequence | shrunken log2 fold change |
| --- | --- |
| RRIRCRPPRLPRPRPRPEMFPRP | 0.00455 |
| RRIRNRPPRLPRPRPRPAWYPRP | -0.178 |
| RRIRTRPPRLPRPRPRPGRPPRP | 0.217 |
| RRIRKRPPRLPRPRPRPSEYPRP | -0.026 |
| RRIRKRPPRLPRPRPRPPWIPRP | -0.0983 |
| RRIRNRPPRLPRPRPRPPAAPRP | 0.676 |
| RRIRERPPRLPRPRPRPGPLPRP | -0.127 |
| RRIRKRPPRLPRPRPRPRFIPRP | 0.346 |
| RRIRGRPPRLPRPRPRPCPFPRP | -0.218 |
| RRIRLRPPRLPRPRPRPSKEPRP | -0.4 |
| RRIRARPPRLPRPRPRPICYPRP | -0.0212 |
| RRIRHRPPRLPRPRPRPFPLPRP | -0.0682 |
| RRIRSRPPRLPRPRPRPSETPRP | -0.44 |
| RRIRGRPPRLPRPRPRPLDEPRP | 1.24 |
| RRIRQRPPRLPRPRPRPMLIPRP | -0.221 |
| RRIRIRPPRLPRPRPRPITAPRP | -0.592 |
| RRIRARPPRLPRPRPRPWSPPRP | 0.138 |
| RRIRWRPPRLPRPRPRPKQAPRP | 0.413 |
| RRIRIRPPRLPRPRPRPLVDPRP | 0.126 |
| RRIRGRPPRLPRPRPRPYQEPRP | 0.0063 |
| RRIRGRPPRLPRPRPRPCTNPRP | 0.247 |
| RRIRQRPPRLPRPRPRPGKFPRP | -0.148 |
| RRIRCRPPRLPRPRPRPPKEPRP | 0.203 |
| RRIRPRPPRLPRPRPRPCDKPRP | 0.0695 |
| RRIRYRPPRLPRPRPRPDHYPRP | -0.0219 |

| Sequence | shrunken log2 fold change |
| --- | --- |
| RRIRTRPPRLPRPRPRPKMIPRP | 0.013 |
| RRIRIRPPRLPRPRPRPQFMPRP | -0.831 |
| RRIRQRPPRLPRPRPRPLANPRP | -0.00739 |
| RRIRMRPPRLPRPRPRPLAKPRP | 0.791 |
| RRIRWRPPRLPRPRPRPANAPRP | 0.711 |
| RRIRYRPPRLPRPRPRPNLRPRP | -0.341 |
| RRIRGRPPRLPRPRPRPTYYPRP | 0.0798 |
| RRIRCRPPRLPRPRPRPYWSPRP | -1.2 |
| RRIRWRPPRLPRPRPRPRHLPRP | 0.11 |
| RRIRERPPRLPRPRPRPVMDPRP | -0.0467 |
| RRIRPRPPRLPRPRPRPHVKPRP | -0.013 |
| RRIRQRPPRLPRPRPRPEHLPRP | -0.00142 |
| RRIRERPPRLPRPRPRPVLSPRP | -0.101 |
| RRIRTRPPRLPRPRPRPEVEPRP | 0.0992 |
| RRIRGRPPRLPRPRPRPGFVPRP | 0.768 |
| RRIRGRPPRLPRPRPRPGNDPRP | 0.381 |
| RRIRMRPPRLPRPRPRPYGAPRP | -0.105 |
| RRIRGRPPRLPRPRPRPTKCPRP | 0.684 |
| RRIRRRPPRLPRPRPRPPWSPRP | 0.421 |
| RRIRDRPPRLPRPRPRPQVPPRP | -0.0122 |
| RRIRQRPPRLPRPRPRPCADPRP | -0.116 |
| RRIRYRPPRLPRPRPRPHTFPRP | -0.14 |
| RRIRERPPRLPRPRPRPDVNPRP | -0.0793 |
| RRIRCRPPRLPRPRPRPYVYPRP | -0.834 |
| RRIRVRPPRLPRPRPRPCKLPRP | -0.453 |
